From publication doi:10.1101/2020.06.02.095570 (bioRxiv, 2020) come the findings set out here.

B1: dehydrodolichyl diphosphate synthase (DHDDS), full-length human (enzyme)
chain: MSWIKEGELSLWERFCANIIKAGPMPKHIAFIMDGNRRYAKKCQVERQEGHSQGFNKLAETLRWCLNLGILEVTVYAFSIENFKRSKSEVDGLMDLARQKFSRLMEEKEKLQKHGVCIRVLGDLHLLPLDLQELIAQAVQATKNYNKCFLNVCFAYTSRHEISNAVREMAWGVEQGLLDPSDISESLLDKCLYTNRSPHPDILIRTSGEVRLSDFLLWQTSHSCLVFQPVLWPEYTFWNLFEAILQFQMNHSVLQKARDMYAEERKRQQLERDQATVTEQLLREGLQASGDAQLRRTRLHKLSARREERVQGFLQALELKRADWLARLGTASA
B2: sNgBRΔ167*-175* (soluble Nogo-B receptor, residues 73*-293*, loop 167-175 removed) (domain or fragment)
chain: RGGSCLAAAHHRMRWRADGRSLEKLPVHMGLVITEVEQEPSFSDIASLVVWCMAVGISYISVYDHQGIFKRNNSRLMDEILKQQQELLGLDCSKDKDDQVLNCHLAVKVLSPEDGKADIVRAAQDFCQLVAQKQKRPTDLDVDTLASLLSSNGCPDPDLVLKFGPVDSTLGFLPWHIRLTEIVSLPSHLNISYEDFFSALRQYAACEQRLGK

The series “cross-linking” concerns the molecule itself. Nature of the series: cross-linking.
In series [1] the target is B1. The series can be described thus: crystal structure.

B1: in “cross-linking”, the binding result is given as “binds”.
On to B2, for which the binding result in series [1] is on record as “binds”.
